Earlier results as cited in PMC7322545.

Assays:
CCL3 (Homo sapiens) = CCL3 (Homo sapiens) (UniProt P10147)
CCL4 (Homo sapiens) = CCL4 (Homo sapiens) (UniProt P13236)
CCL18 (Homo sapiens) = CCL18 (Homo sapiens) (UniProt P55774)

Measured: Kd

Sequence of UniProt P13236 (P13236 24-92): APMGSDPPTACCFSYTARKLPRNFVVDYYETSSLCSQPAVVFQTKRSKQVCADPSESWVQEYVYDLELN
Sequence of UniProt P55774 (P55774 24-89): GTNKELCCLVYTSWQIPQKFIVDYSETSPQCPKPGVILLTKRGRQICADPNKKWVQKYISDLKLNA
Sequence of UniProt P10147 (P10147 24-92): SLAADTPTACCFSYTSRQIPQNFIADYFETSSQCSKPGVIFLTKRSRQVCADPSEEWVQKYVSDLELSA

EVA-1 (from UniProt P0C8E7)
< 5 nM: all assays above
